Reference: patent publication US11198713B2, “Agents modulating beta-catenin functions and methods thereof” (FOG PHARMACEUTICALS, INC., priority 2017, dated 2021)
Numbered stars: 1 amine (or outer) side, 2 acyl side, 3 side chain; on linkers, the order of the positions; unused ones are H or OH. Bridge positions count the residues as written; N and C are the ends. Square brackets hold non-standard residues; d marks the D form. MB = Monomer B = PyrS, Alloc-pyrrolidine stapling residue (allyl carbamate on pyrrolidine N); MI = Monomer I = ReN, acyclic amine-bearing olefin stapling residue; MD = Monomer D = SgN, acyclic Alloc-amine olefin stapling residue; R6 = (R)-2-(5-hexenyl)alanine, C=CCCCC[C@@](C)(N[*:1])C(=O)[*:2]; MG = Monomer G = RdN, acyclic alkyl-N(Alloc) stapling residue; MC = Monomer C = PyrR, Alloc-pyrrolidine stapling residue; MA = Monomer A (Az), N-Alloc azetidine stapling residue; S7 = C[C@@](CCCCCC=[*:3])(N[*:1])C(=O)[*:2]; R8 = C=CCCCCCC[C@@](C)(N)C(=O)O; R5 = C=CCCC[C@@](C)(N)C(=O)O; βAla = NCCC(=O)O

Columns and labels:
full-length beta-catenin [1] = target: T1, full-length beta-catenin (UniProt P35222 2-781, limits assumed); assay: competition FP, grade of FP EC50 (+: 500-5000 nM)
T1 construct: mature; also called full-length ß-Catenin; β-catenin
T1 sequence (looked up): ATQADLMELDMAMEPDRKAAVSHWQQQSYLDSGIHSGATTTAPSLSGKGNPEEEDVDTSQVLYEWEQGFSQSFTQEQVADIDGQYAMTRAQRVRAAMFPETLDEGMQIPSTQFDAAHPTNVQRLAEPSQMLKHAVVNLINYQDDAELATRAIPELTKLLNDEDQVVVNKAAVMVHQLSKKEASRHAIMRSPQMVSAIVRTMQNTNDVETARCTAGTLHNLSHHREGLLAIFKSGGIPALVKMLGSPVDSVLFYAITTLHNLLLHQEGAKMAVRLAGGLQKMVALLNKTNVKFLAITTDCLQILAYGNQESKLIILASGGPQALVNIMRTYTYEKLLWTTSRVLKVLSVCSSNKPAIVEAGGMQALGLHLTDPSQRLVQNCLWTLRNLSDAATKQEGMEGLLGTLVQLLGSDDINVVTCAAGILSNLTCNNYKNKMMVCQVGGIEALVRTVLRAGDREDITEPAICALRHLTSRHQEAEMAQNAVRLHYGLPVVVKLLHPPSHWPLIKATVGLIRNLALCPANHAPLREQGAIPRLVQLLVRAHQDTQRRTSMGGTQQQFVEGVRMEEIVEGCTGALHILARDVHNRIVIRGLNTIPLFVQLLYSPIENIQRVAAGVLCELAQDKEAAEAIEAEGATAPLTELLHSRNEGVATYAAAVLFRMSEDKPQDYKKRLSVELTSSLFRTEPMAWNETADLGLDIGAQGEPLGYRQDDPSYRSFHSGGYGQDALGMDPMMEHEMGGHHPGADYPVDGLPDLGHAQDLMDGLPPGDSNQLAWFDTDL
In short: (§1)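 Compound 3-fold serially diluted from 5 µM in Tris pH 8.0, 250 mM NaCl buffer, added to premixed 15 nM full-length β-catenin and 20 nM FITC-labelled stapled axin-site peptide probe. Incubated 15 min in the dark, polarization read in duplicate.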

full-length beta-catenin [2] = target: T1, full-length beta-catenin; assay: competition FP; amino staple (acyclic)
Protocol: (§2) In some embodiments, a competition fluorescence polarization assay is used to assess binding of provided compounds to beta-catenin. In an exemplary procedure, solutions of provided compounds, e.g., provided stapled peptides, were prepared in a buffer (e.g., 50 mM Tris pH 8.0, 250 mM NaCl, 2% glycerol, 0.5 mM EDTA, 0.02% w/v sodium azide) using a 3-fold serial dilution from 5 µM. Probe solution (15 nM full-length ß-Catenin, 20 nM FITC labeled peptide in buffer) was prepared and incubated for a period of time, e.g., 5 minutes, and the a volume, e.g., 40 µL per well plated in suitable plate, e.g., a black polystyrene 384-well plate (Corning). Equal volume of the serial diluted peptide was added to the plate and incubated protected from light for 15 minutes prior to read. Reads were performed on a Spectramax M5 (Molecular Devices) in duplicate. Suitable probe was FITC-PEG1-PQ-S5-ILD-S5-HVRRVWR (SEQ ID NO: 1) (hydrocarbon staple formed by two S5 via olefin metathesis) and/or FITC-bA-PQ-S5-ILD-S5-HVRRVWR (SEQ ID NO: 3) (hydrocarbon staple formed by two S5 via olefin metathesis). […] Another peptide, FPO217c (Ac-AR_8ILDAHIM$B5$RVW (SEQ ID NO: 280), with N-terminal proline removed and valine replaced with isoleucine compared to FP0025c) was prepared.

[3] = target: T2, biotinylated beta-catenin (UniProt P35222 134-665, limits assumed, biotinylated (site not stated)); assay: SPR (Biacore, biotinylated beta-catenin)
T2 construct: also called beta-catenin (SPR); armadillo domain of β-catenin
T2 sequence (looked up): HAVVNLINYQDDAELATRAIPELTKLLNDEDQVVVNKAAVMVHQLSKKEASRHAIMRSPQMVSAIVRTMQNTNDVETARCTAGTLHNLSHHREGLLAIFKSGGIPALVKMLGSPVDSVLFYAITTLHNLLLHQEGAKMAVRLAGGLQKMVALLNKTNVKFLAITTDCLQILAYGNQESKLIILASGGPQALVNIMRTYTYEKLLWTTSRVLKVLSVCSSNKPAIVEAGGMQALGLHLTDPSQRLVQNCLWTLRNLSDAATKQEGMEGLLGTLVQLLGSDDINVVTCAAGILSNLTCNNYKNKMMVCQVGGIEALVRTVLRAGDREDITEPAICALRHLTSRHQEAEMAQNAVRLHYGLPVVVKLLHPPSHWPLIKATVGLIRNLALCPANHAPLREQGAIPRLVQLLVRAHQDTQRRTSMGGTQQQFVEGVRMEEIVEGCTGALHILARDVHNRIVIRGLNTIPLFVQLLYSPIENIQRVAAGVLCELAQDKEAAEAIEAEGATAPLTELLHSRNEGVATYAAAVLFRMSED
Protocol: (§3) Additionally or alternatively, binding to beta-catenin may be measured by Surface Plasmon Resonance. In an exemplary assay, approximately 6 nmol dried peptide diluted in buffer (50 mM Tris pH 8.0, 300 mM NaCl, 2% glycerol, 0.5 mM TCEP, 0.5 mM EDTA, 0.005% Tween-20, 1 mg/mL CM Dextran, 0.02% w/v sodium azide) was assayed on a Biacore X100 using the Biacore Biotin CAPture Kit (GE Healthcare) and biotinylated beta-catenin. Results were analyzed using the Biacore X100 Evaluation Software.

full-length beta-catenin [4] = target: T1, full-length beta-catenin; assay: competition FP, grade of FP EC50 (+++: <=100 nM)
In short: as §1

full-length beta-catenin [5] = target: T1, full-length beta-catenin; assay: competition FP, grade of FP EC50 (++: 100-500 nM)
In short: as §1

full-length beta-catenin [6] = target: T1, full-length beta-catenin; assay: competition FP; amino staple (cyclic)
Protocol: as §2

full-length beta-catenin [7] = target: T1, full-length beta-catenin; assay: competition FP, grade of FP EC50 (+: 500-5000 nM); competition FP vs FITC probe, 15 nM full-length beta-catenin, peptide diluted from 5 µM; grade + (500-5000 nM EC50)
Protocol: as §2

[8] = target: T2, biotinylated beta-catenin; assay: Table 3 'Binding Kd (nM)'; method not stated there (SPR in Example 2)
Protocol: as §3

full-length beta-catenin [9] = target: T1, full-length beta-catenin; assay: Axin competition fluorescence polarization; 15 nM full-length beta-catenin, 20 nM FITC-StAx-33 probe displaced by titrated peptide
full-length beta-catenin [10] = target: T1, full-length beta-catenin; assay: competition FP
Protocol: as §2

B1: FP0776a (peptide)
peptide: Ac-PQ[R5]ILD[MG]HVRRVWR-NH2
modifications: staple 3-7; also: amino staple (-N(R')-), from carbamate staple by metathesis then Pd(0) CO2 extrusion
notes: also called FP-0776 (amino staple)
- FP EC50 (full-length beta-catenin [1]): 500 to 5000 nM
- EC50 (full-length beta-catenin [2]): 580 nM

Binder: H-[βAla]A[R8]ILDAHI[MB]RVW-NH2 (staple 3-10) [FP0217c_bAfree]
- Kd [3]: 9 nM
- FP EC50 (full-length beta-catenin [4]): ≤ 100 nM

B2: FP0745a (peptide)
peptide: Ac-PQ[MC]ILD[R6]HVRRVWR-NH2
modifications: staple 3-7; also: amino staple: CO2 extruded from carbamate staple with Pd(PPh3)4
notes: also called FP-0745 (amino staple); PR/R6
- FP EC50 (full-length beta-catenin [5]): 100 to 500 nM
- EC50 (full-length beta-catenin [6]): 210 nM

B3: FP0783a (peptide)
peptide: Ac-PQ[MI]ILD[R5]HVRRVWR-NH2
modifications: staple 3-7; also: amino staple (-N(R')-), from carbamate staple by metathesis then Pd(0) CO2 extrusion
notes: also called FP-0783 (amino staple)
- FP EC50 (full-length beta-catenin [1]): 500 to 5000 nM
- EC50 (full-length beta-catenin [2]): 1400 nM

Binder: AXILDAHIXRVW (not fully specified; Ac-A-R6-I-L-D-A-H-I-MF-R-V-W-NH2; amino staple R6/MF) [FP0502a]
- FP EC50 (full-length beta-catenin [7]): 500 to 5000 nM

Binder: Ac-A[R8]ILDAHI[MD]RVW-NH2 (staple 2-9) [FP0338c]
- Kd [8]: 10 nM
- FP EC50 (full-length beta-catenin [5]): 100 to 500 nM

B4: FP0738a (peptide)
peptide: Ac-PQ[S7]ILD[MA]HVRRVWR-NH2
modifications: staple 3-7; also: amino staple: CO2 extruded from carbamate staple with Pd(PPh3)4
notes: also called FP-0738 (amino staple); S7/Az
- FP EC50 (full-length beta-catenin [5]): 100 to 500 nM
- EC50 (full-length beta-catenin [6]): 200 nM

B5: FP0217c Isomer 2 (peptide)
peptide: Ac-A[R8]ILDAHI[MB]RVW-NH2
modifications: staple 2-9; also: Isomer 2, staple olefin E/Z not assigned
notes: also called FPO217c isomer 2; FP00217c Isomer 2
- Kd [8]: 4 nM
- Kd [3]: 2 nM
- EC50 (read off the curve) (full-length beta-catenin [9]): ~70 nM
- FP EC50 (full-length beta-catenin [4]): ≤ 100 nM
- fold better potency than FP0217c Isomer 1 (full-length beta-catenin [10]): > 10 fold

Binder: AXILDAHIXRVW (not fully specified; Ac-A-R4-I-L-D-A-H-I-MH-R-V-W-NH2; carbamate staple R4/MH) [FP0509c]
- Kd [8]: 3 nM
- Kd [3]: 3 nM
- FP EC50 (full-length beta-catenin [4]): ≤ 100 nM
